Reference: patent US20140056907A1 (Regeneron, published 2014)
Changes are numbered by the printed parent chain. Names may count otherwise. One block for each binder: values may come before it.

What was measured:
human ASIC1 [1] = target: T1, human ASIC1 (human, UniProt P78348 1-528); assay: FACS, 3T3/hASIC1 cells
T1 construct: Ion channel subunit expressed on 3T3 (3T3/hASIC1) or HEK293 cells (HEK/hASIC1; HEK293 CL:1F10 transient); also called hASIC1; human ASIC1a
T1 sequence: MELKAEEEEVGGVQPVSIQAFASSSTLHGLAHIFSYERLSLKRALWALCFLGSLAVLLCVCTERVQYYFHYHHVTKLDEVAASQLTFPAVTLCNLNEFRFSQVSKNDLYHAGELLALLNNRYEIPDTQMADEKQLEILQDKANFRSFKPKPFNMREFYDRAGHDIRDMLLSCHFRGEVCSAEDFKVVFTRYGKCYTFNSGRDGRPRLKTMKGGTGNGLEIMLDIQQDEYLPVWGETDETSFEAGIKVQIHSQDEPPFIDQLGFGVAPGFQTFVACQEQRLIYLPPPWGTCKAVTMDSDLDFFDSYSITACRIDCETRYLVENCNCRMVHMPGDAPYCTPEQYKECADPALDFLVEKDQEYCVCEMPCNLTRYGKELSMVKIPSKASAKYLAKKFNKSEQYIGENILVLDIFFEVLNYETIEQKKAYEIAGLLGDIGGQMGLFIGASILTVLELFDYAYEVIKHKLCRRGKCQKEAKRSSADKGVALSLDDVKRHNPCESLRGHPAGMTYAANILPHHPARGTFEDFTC
From the text: To further characterize anti-ASIC1 antibodies, their ability to bind either (a) a mouse fibroblast 3T3 cell line stably transfected to overexpress full length human ASIC1 (3T3/hASIC1; amino acids 1-528 of NCBI accession number NP_{—}001086.2 [SEQ ID NO:401]), (b) a 3T3 cell line stably transfected to over express full length mouse ASIC1a (3T3/mASIC1a; amino acids 1-526 of NCBI accession number NP_{—}033727), or (c) a ND7 cell line (ECACC, #92090903) that is a fusion cell line of mouse neuroblastoma and rat dorsal root ganglia that endogenously expresses rat ASIC1, was determined using flow cytometry (FACS). ND7 cells were differentiated by replacing the culture media with low-serum media (0.5% FBS) containing 1 mM dibutyryl-cAMP (Cat. No. sc-201567A, Santa Cruz Biotechnology, Inc., Santa Cruz, Calif.). […]
(§1) To perform the FACS binding experiments, adherent cells were collected using 1 mM EDTA in PBS, then washed, and re-suspended in cold PBS containing 5% FBS. […] After incubating for 20 minutes on ice, the cells were washed and resuspended in PBS containing 5% FBS, then sorted and analyzed on a flow cytometer (FACSCalibur, BD Biosciences, San Jose, Calif.) to determine relative binding by the candidate antibodies to the tested cell lines. […] Percentage of ASIC1 signal over secondary antibody alone was calculated using FlowJo software (Tree Star, Ashland, Oreg.).

human ASIC1 [2] = target: T1, human ASIC1; assay: cell-based or functional assay
human ASIC1 [3] = target: T1, human ASIC1; assay: cell-based or functional assay; remark: listed apart in the source
mouse ASIC1a [4] = target: T2, mouse ASIC1a (mouse, UniProt Q6NXK8 1-526); assay: cell-based or functional assay
T2 sequence (looked up): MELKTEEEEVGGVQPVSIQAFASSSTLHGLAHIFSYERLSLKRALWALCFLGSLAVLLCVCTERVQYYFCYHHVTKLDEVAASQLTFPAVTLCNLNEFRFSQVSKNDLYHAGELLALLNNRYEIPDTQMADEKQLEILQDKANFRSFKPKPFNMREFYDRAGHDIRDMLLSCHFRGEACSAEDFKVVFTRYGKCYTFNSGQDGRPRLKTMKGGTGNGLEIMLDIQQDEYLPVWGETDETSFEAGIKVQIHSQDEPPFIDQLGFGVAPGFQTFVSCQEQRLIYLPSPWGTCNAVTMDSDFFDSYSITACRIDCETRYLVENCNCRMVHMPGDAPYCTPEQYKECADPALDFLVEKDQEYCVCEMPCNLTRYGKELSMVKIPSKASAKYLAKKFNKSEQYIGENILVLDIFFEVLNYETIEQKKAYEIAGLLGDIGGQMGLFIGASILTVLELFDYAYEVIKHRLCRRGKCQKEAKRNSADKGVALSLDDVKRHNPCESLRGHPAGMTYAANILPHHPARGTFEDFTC

human ASIC1 [5] = target: T1, human ASIC1; assay: cell-based or functional assay; remark: listed apart in the source
rat ASIC1 = target: T3, rat ASIC1 (rat, UniProt P55926 1-526); assay: FACS, undifferentiated ND7 cells
T3 construct: whole, on cells; ND7 is a fusion line of mouse neuroblastoma and rat dorsal root ganglia; also called rat ASIC1a
T3 sequence (looked up): T2 sequence (looked up) with N476S
From the text: (§2) To further characterize anti-ASIC1 antibodies, their ability to bind either (a) a mouse fibroblast 3T3 cell line stably transfected to overexpress full length human ASIC1 (3T3/hASIC1; amino acids 1-528 of NCBI accession number NP_{—}001086.2 [SEQ ID NO:401]), (b) a 3T3 cell line stably transfected to over express full length mouse ASIC1a (3T3/mASIC1a; amino acids 1-526 of NCBI accession number NP_{—}033727), or (c) a ND7 cell line (ECACC, #92090903) that is a fusion cell line of mouse neuroblastoma and rat dorsal root ganglia that endogenously expresses rat ASIC1, was determined using flow cytometry (FACS). ND7 cells were differentiated by replacing the culture media with low-serum media (0.5% FBS) containing 1 mM dibutyryl-cAMP (Cat. No. sc-201567A, Santa Cruz Biotechnology, Inc., Santa Cruz, Calif.). FACS binding was tested for some antibodies on both undifferentiated ND7 cells and differentiated ND7 cells.
as §1, with “PBS containing 5% FBS. For each binding experiment, each anti-ASIC1 antibody (at final concentrations of 10 nM of purified antibodies or 3.3 nM for antibody supernatants for binding to 3T3/hASIC1 cells and 5 nM for binding to 3T3/mASIC1a or ND7 cells) was added to 250,000 cells in 500 μL of PBS with 5% FBS.” for “PBS containing 5% FBS.”

human ASIC1 [6] = target: T1, human ASIC1; assay: FACS titration, 3T3/hASIC1 cells
Method: To perform the FACS binding experiments, adherent cells were collected using 1 mM EDTA in PBS, then washed, and re-suspended in cold PBS containing 5% FBS. For each binding experiment, each anti-ASIC1 antibody ([…] or ND7 cells) was added to 250,000 cells in 500 μL of PBS with 5% FBS. After incubation for 20 minutes at room temperature, a secondary antibody which recognizes human Fc (Cat. No. 109-136-098, Jackson ImmunoResearch Laboratories, Inc., West Grove, Pa.) or mouse Fc (Cat. No. 550826, BD Biosciences, San Jose, Calif.) and is conjugated to allophycocyanin, was then added to the cell mixture at a final concentration of 13.3 nM. After incubating for 20 minutes on ice, the cells were washed and resuspended in PBS containing 5% FBS, then sorted and analyzed on a flow cytometer (FACSCalibur, BD Biosciences, San Jose, Calif.) to determine relative binding by the candidate antibodies to the tested cell lines. Histograms of cells stained with anti-ASIC1 antibodies were compared with those of cells stained with secondary antibody alone. Percentage of ASIC1 signal over secondary antibody alone was calculated using FlowJo software (Tree Star, Ashland, Oreg.).

mouse ASIC1a [7] = target: T2, mouse ASIC1a; assay: FACS, 3T3/mASIC1a cells
From the text: as §2
To perform the FACS binding experiments, adherent cells were collected using 1 mM EDTA in PBS, then washed, and re-suspended in cold PBS containing 5% FBS. For each binding experiment, each anti-ASIC1 antibody (at final concentrations of 10 nM of purified antibodies or 3.3 nM for antibody supernatants for binding to 3T3/hASIC1 cells and 5 nM for binding to 3T3/mASIC1a or ND7 cells) was added to 250,000 cells in 500 μL of PBS with 5% FBS. After incubation for 20 minutes at room temperature, a secondary antibody which recognizes human Fc (Cat. No. 109-136-098, Jackson ImmunoResearch Laboratories, Inc., West Grove, Pa.) or mouse Fc (Cat. No. 550826, BD Biosciences, San Jose, Calif.) and is conjugated to allophycocyanin, was then added to the cell mixture at a final concentration of 13.3 nM. After incubating for 20 minutes on ice, the cells were washed and resuspended in PBS containing 5% FBS, then sorted and analyzed on a flow cytometer (FACSCalibur, BD Biosciences, San Jose, Calif.) to determine relative binding by the candidate antibodies to the tested cell lines. Histograms of cells stained with anti-ASIC1 antibodies were compared with those of cells stained with secondary antibody alone. Percentage of ASIC1 signal over secondary antibody alone was calculated using FlowJo software (Tree Star, Ashland, Oreg.).

- apparent IC50, human ASIC1 current, Q-Patch (human ASIC1 [3]): ≤ 10 nM
- apparent IC50, mouse ASIC1 current, Q-Patch (mouse ASIC1a [4]): < 25 nM
- Current inhibition (%) at 100 nM antibody, Q-Patch, pH 6.0 (human ASIC1 [2]): 92%
- EC50 (human ASIC1 [6]): 1.7 nM
B4: H2M7103N (antibody, V domains shown)
VH: EVQLVESGGGLVQPGGSLKLSCAASGFTFSSFWMSWVRQAPGKGLEWVANIKQNGSETYYVDSVKGRFTISRDNTKNSLYLQMNSLRAEDTAIYYCARGGRIQLWSSWFDPWGQGTLVTVSS
VL: DIQMTQSPSSLSASVGDRVTITCRASQSIKNYLNWYQQKSGKAPKLLIYAASSLQSGVPSRVSGSGSGTDFTLTISSLHPEDFAAYYCQQSFSAPLTFGGGTKVEIK
notes: Chimeric: human variable, mouse constant domains; Fc isotype not spelled out; also called H2bM7103N
- binding result (rat ASIC1): no binding (tested: 5 nM; gated lower than 1%)

- apparent IC50, human ASIC1 current, Q-Patch (human ASIC1 [3]): ≤ 10 nM
- apparent IC50, mouse ASIC1 current, Q-Patch (mouse ASIC1a [4]): < 25 nM
- Current inhibition (%) at 100 nM antibody, Q-Patch, pH 6.0 (human ASIC1 [2]): 82%
- EC50 (human ASIC1 [6]): 1.1 nM
B5: H3M6720N (antibody, V domains shown)
VH: B4 VH
VL: AIQMTQSPSSLSASVGDRVTITCRASQGISNDLGWYQQKPGKAPKLLIYGASSLQTGVPSRFSGSGSGTDFTLTISSLQPEDFATYYCLQDFNYPYTFGQGTKLEIK
notes: Chimeric: human variable, mouse constant domains; H3M prefix marks the Fc, isotype not spelled out
- binding result (mouse ASIC1a [7]): no binding (tested: 5 nM; gated lower than 1%)
- binding result (rat ASIC1): no binding (tested: 5 nM; gated lower than 1%)

Further lines, the binder ahead of its results:

B1: H4H6362P (antibody, V domains shown)
VH: QVQLVESGGGVVQPGRSLRLSCEASGFTFGSYGMHWVRQAPGKGLEWMAVISYDGNSRYSADSVKGRFTISRDNSKNTLYLQMNSLRAEDTALYYCAKENHIAARRPGGLDVWGQGTTVTVSS
VL: DIQMTQSPSSLSASVGDRVTITCRASQGISIYLAWYQQKPGKVPKLLIYAASSLQSGVPSRFSGSGSGTDFTLTISSLQPEDVATYFCQNYNIAPWTLGQGTKVEIK
- binding result (human ASIC1 [1]): no binding
- Current inhibition (%) at 100 nM antibody, Q-Patch, pH 6.0 (human ASIC1 [2]): 29%

B2: H4H6381P (antibody, human IgG4, V domains shown)
VH: QVQLVQSGAEVKKPGASVKVSCKASGYTFTSYGISWVRQAPGQGLEWMGWISAYNGNTNYAQKLQGRVTMTTDTSTSTAYMELRSLRSDDTAVYYCARDGSYSWFDPWGQGTLVTVSS
VL: not shown
- binding result (human ASIC1 [1]): no binding
- Current inhibition (%) at 100 nM antibody, Q-Patch, pH 6.0 (human ASIC1 [2]): 25%

B3: H3M6721N (antibody, V domains shown)
VH: EVQLLASGGGLVQPGGSLRLSCAASGFTFSSFAMSWVRQAPGKGLEWVSGISGSGVSTYYADSVKGRFTISRDNSKNTLYLQMNSLRAEDTAAYYCAKEAYKWQPWGQGIRVTVSS
VL: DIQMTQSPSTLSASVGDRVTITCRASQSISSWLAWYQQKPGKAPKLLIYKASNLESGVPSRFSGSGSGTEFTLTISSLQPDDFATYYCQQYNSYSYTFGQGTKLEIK
notes: as for B5
- apparent IC50, human ASIC1 current, Q-Patch (human ASIC1 [3]): ≤ 10 nM
- apparent IC50, mouse ASIC1 current, Q-Patch (mouse ASIC1a [4]): < 25 nM
- FLIPR Dose Curve, pH 5.0 % Block (human ASIC1 [5]): 25%
- FLIPR Dose Curve, pH 5.5 % Block (human ASIC1 [5]): 44%
- FLIPR Dose Curve, pH 5.5 IC50 (human ASIC1 [5]): 0.3 nM
- Current inhibition (%) at 100 nM antibody, Q-Patch, pH 6.0 (human ASIC1 [2]): 100%
- binding result (rat ASIC1): no binding (tested: 5 nM; gated lower than 1%)
- EC50 (human ASIC1 [6]): 0.085 nM
